Laboratory results published in the DeepSol protein solubility set.

experiment: soluble on expression in E. coli; label from the status in PepcDB or PDB records

Row | Sequence | soluble on expression in E. coli
1 | MRLITFAGHYFSRIIIMINRALVRSRVLQQAYVYYHRDDADIQSAEKELLNSLEQTYDLYLYYLLLVPELTRLHAEALEANKNKHLATEKDKNPNLRMVRNRLAEKIESCRPLWVRAEQNALNWRSEEAFLRRLLKKIHLSETFTRYMRSDATDDFEADRLFWNELMRDIILPDEELAEVMEEQSIFWDNQIQLIEKIETEEAPDIEEVEQSVRQAVADGNYQTIRQENAPIEIVKEFVLKTIRRIEQDTDPSAILLPAYKEKDDAVFGTTLLRNAIINGQEYRH | not soluble
2 | MGSDKIHHHHHHMKIGVFVPIGNNGWLISTHAPQYMPTFELNKAIVQKAEHYHFDFALSMIKLRGFGGKTEFWDHNLESFTLMAGLAAVTSKIQIYATAATLTLPPAIVARMASTIDSISGGRFGVNLVTGWQKPEYDQMGMWPGDDYFASRYDYLTEYVQVLRDLWGTGRSDFKGDYFTMNDCRVSPRPSQPMKVICAGQSDAGMAFSAQHADYNFCFGKGVNTPTAFAPTAARMMQAAEKTGRDVGSYVLFMVIADETDEAARAKWEHYKAGADEEALAWLTEQSQKDTRSGSDTNVRQMADPTSAVNINMGTLVGSYASVARMLDEVASVPGTDGVLLTFDDFLAGIDAFGERIQPLMRCRNHIASVTREVA | not soluble
3 | MTSKVGPVALKTFREKLGPELLEVFDKSYKSFTDVQVLSGTHLLNLSDVVVESPTGSGKTLAFVLPMMRMIQNAKLQPADIGALILSPSRELCSQIVSVIQPFAEKLNLTVETVTGGQKVDKNIKMFKNKNVNILVATPGRLFQIIQHEKTLIARKMRTLQLLVIDEADRFNEIQFEDHMREILSCIPKQRRTGLFSATQVKEEDDLMVFGLRNAKQVKVAQERNSAAPSTLKNYYVECRADEKTSVCLEFIRQRTDKKILIFFPSCNSVRYFYKIFERCLGKRPLFAVHGKCSNPHRASQIKAFSDSTNGVMISTDVMARGIDISDIDWVIQFDLPKHSSWFVHRAGRTARCGREGNALILIASEQLAYVNFLDNHEKVKLDEIKVPTNNSRKSEELRQKMIKIQVSDRAILEAGTRAFVSHVESYAKHDCHLICSLDDLNVVGLANSYALLRLPKMRELSQRKDLDMFDRSAIETSEIKYADVKLEANRETVMKEKHEKKVETLAAKDKKRREKEARKLKKMGGRFRNGGGTGRKAEEKKALKRKAEEEDDAQNDIRLLKRIKRGKLSKKEIKDVL | not soluble
4 | MPMLDMIVSRVITLLQGRESRSLRVTQAELAAGLSKTVYLHNAQLILPLPDLAFIQSLVAYDHHHPAVSTVLEAWAYGVRLHLQIHQQLLTALPLRELRRLPVTLTDHMSTPVKLAAAAGLSYASVIHWHDCWVLLEKQTLITALAREVMERQNIKLIWQE | not soluble
5 | MHQFTSKQDFCHWFNQFQHPQLVENWADIHGVVTITAQGEVKITLPFASNELQRTLQEWIQQQQAFKAVAAFPYHIELGVKALETQVSNAVKGVKNIIAVSSAKGGVGKSTTAVNLALAIAQSGAKVGLLDADIYGPSVPMMLGQEDAKPEVRDGKWMEPIFAHGIYTHSIGYLVNKSEAAIWRGPMASKALAQLLNETDWPELDYLVIDMPPGTGDIQLTLSQQIPVTGTVLVTTPQDLALADARKGAAMFNKVNVPVVGVVENMSYHICSQCGATEHIFGMGGAEKMSQEFGLALLGQIPLHISMREDIDAGVPTVVRRPDSEHSGYYKQLADRVCSTMFWQGKAKPDAISFTMVNLEHHHHHH | not soluble
6 | MGSDKIHHHHHHMSEDIFDAIIVGAGLAGSVAALVLAREGAQVLVIERGNSAGAKNVTGGRLYAHSLEHIIPGFADSAPVERLITHEKLAFMTEKSAMTMDYCNGDETSPSQRSYSVLRSKFDAWLMEQAEEAGAQLITGIRVDNLVQRDGKVVGVEADGDVIEAKTVILADGVNSILAEKLGMAKRVKPTDVAVGVKELIELPKSVIEDRFQLQGNQGAACLFAGSPTDGLMGGGFLYTNENTLSLGLVCGLHHLHDAKKSVPQMLEDFKQHPAVAPLIAGGKLVEYSAHVVPEAGINMLPELVGDGVLIAGDAAGMCMNLGFTIRGMDLAIAAGEAAAKTVLSAMKSDDFSKQKLAEYRQHLESGPLRDMRMYQKLPAFLDNPRMFSGYPELAVGVARDLFTIDGSAPELMRKKILRHGKKVGFINLIKDGMKGVTVL | not soluble
7 | GSHMTGPVTKEDLGRATWTFLHTLAAQYPEKPTRQQKKDVKELMTILSRMYPCRECADHFKEILRSNPAQAGSQEEFSQWLCHVHNTVNRSLGKLVFPCERVDARWGKLECEQKSCDLHGTSMDF | soluble
8 | PQPSRPRKGSLGFGPRKRSTSETPRFNSWPSDDGQPGVQGFAGYKAGMTHVVLVNDEPNSPREGMEETVPVTVIETPPMRAVALRAYEDTPYGQRPLTEVWTDEFHSELDRTLDVPEDHDPDAAEEQIRDAHEAGDLGDLRLITHTVPDAVPSVPKKKPDVMETRVGGGSVSDRLDHALDIVEDGGEHAMNDIFRAGEYADVAGVTKGKGTQGPVKRWGVQKRKGKHARQGWRRRIGNLGPWNPSRVRSTVPQQGQTGYHQRTELNKRLIDIGEGDEPTVDGGFVNYGEVDGPYTLVKGSVPGPDKRLVRFRPAVRPNDQPRLDPEVRYVSNESNQG | soluble
9 | MKKWLPAFLFLSLSGCNDALAANQSTMFYSFNDNIYRPQLSVKVTDIVQFIVDINSASSTATLSYVACNGFTWTHGLYWSEYFAWLVVPKHVSYNGYNIYLELQSRGSFSLDAEDNDNYYLTKGFAWDEANTSGQTCFNIGEKRSLAWSFGGVTLNARLPVDLPKGDYTFPVKFLRGIQRNNYDYIGGRYKIPSSLMKTFPFNGTLNFSIKNTGGCRPSAQSLEINHGDLSINSANNHYAAQTLSVSCDVPTNIRFFLLSNTNPAYSHGQQFSVGLGHGWDSIISINGVDTGETTMRWYRAGTQNLTTGSRLYGESSKIQPGVLSGSATLLMILP | soluble
10 | FSIAVTGATGQLGGLVIQHLMAAVPASQIIAIVRNVEKASTLADQGVEVRHGDYNQPESLQKAFAGVSKLLFISGPHYDNTLLIVQHANVVKAARDAGVKHIAYTGYAFAEESIIPLAHVHLATEYATRTTNIPYTFLRNALYTDFFVNEGLRASTESGAIVTNAGSGIVNSVTRNELALAAATVLTEEGHENKTYNLVSNQPWTFDELAQILSEVSGKKVVHQPVSFEEEKNFMVNAGVPEPFAEITAAIYDAISKGEASKTSDDLQKLIGSLTPLKETVKQALKM | soluble
11 | HPWQRASVWAEILPSILFRTDFTNAQDEPDEMSSKLHRRSSFQPAFQVGVAYRVSDHMGIEAHAGYQLGEAVYHLMEETSTWSIIKKRATVPYRGFEFAVGLQFYPFR | not soluble
12 | FINNPNRHFANNYHFAKELALELKKQDVLELATAPSLQKRLRFYGIKNSNKFYLKALKQADKHDMDKKIVKVKLGKYEKVYQILNYD | not soluble
13 | MTDTLLPAAPQPLEKEGDDYFRKGCNPLAQTGRSKLQNQRAALNQQILKAVRMRTGAENLLKVATNQKVREQVRLELSFVNSDLQMLKEELEGLNISVGVYQGTEEAFTIPLIPLGLKETKEVDFSIVFKDFILEHYSEDSYLYEDDIADLMDLRQACRTPSRDEAGVELLMSYFIQLGFVESRFFPPTRHMGLLFTWYDSFTGVPVSQQTLLLEKASVLFNIGALYTQIGTRCNRQTQAGLESAVDAFQRAAGVLNYLKETFTHTPSYDMSPAMLSVLVKMMLAQAQESVFEKVCLPGIQNEFFVLVKVAQEAAKVAEAYRQLHAAMSQEPVKENIPYSWASVAYVKAYHYGALAHYFAATLLIDHQLKPGADEDHQEKCLSQLYDRMPEGMTPLATLKNAGQRVLLGKGHLHRAIGFHEESLREANLCKKLRDIQVLRDVLSAAHQRTQLKHTQHREDDDLLNLIDAPDVLPKTEREVKITFPDFSKVTVTDFFQKLGPLSVFSASKRWSPPRGIHFTVEEGDLGFTLRGNTPVQVHFLDPHCSASLAGAKEGDYIVSIQGVDCKWLTVSEVMKLLKSFGGEEVEMKVVSLLDSTSSMHNKCATYSVGMQKTYSMICLSMDDDDKADKTKKISKKLSFLSWGTSKNRQKSASTLCLPEVGLARSQNKKKLPTPFSLLNSDSSLY | soluble
